According to patent US20050130152, “Method for performing in vitro diagnosis using gene regulation mechanisms and corresponding diagnosis kit” (UNISENSOR S.A., published 2005):

Biological target: T1, TetR class C (tetracycline repressor, pSC101) (Escherichia coli C600 (plasmid pSC101), UniProt P03039 P03039:1-219)
T1 sequence: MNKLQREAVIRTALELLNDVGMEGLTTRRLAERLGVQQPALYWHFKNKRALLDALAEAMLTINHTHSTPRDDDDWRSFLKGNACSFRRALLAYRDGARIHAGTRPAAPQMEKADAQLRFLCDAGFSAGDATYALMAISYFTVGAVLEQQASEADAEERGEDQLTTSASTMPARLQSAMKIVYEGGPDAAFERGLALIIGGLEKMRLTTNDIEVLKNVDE
Assay: immunochromatographic strip; test line 5218 without tetracycline, falling to 399 at 100 ppb tetracycline in milk; DNA immobilised via avidin
Conditions: tags: untagged; detected via anti-TetR serum and gold-labelled A-protein in strip assay; chain copies: 2; label: 5'-biotin on teta-40; 31 bp duplex with 5' single-strand poly-T tail
Experimental: 200 μl of milk are incubated in the presence of the lyophilised reagents and prepared as in Point 1.1.2.2. After two minutes of incubation at 37° C., the analysis strip described at 1.3 is immersed in the solution. The final interpretation is carried out after 8 minutes of incubation by means of an optical strip reader available from 77-Elektronika (Budapest, Hungary).

B1: tetA operator of pSC101 (teta-40/teta-30) (dsDNA)
DNA 1: TTTTTTTTTTTAATGCGGTAGTTTATCACAGTTAATTGCTAA
DNA 2: TTAGCAATTAACTGTGATAAACTACCGCATT
- binding result: binds
